Data from paper PMC12352893, “Neuraminidase 1 secondary deficiency contributes to CNS pathology in neurological mucopolysaccharidoses via brain protein hypersialylation” (The Journal of Clinical Investigation, 2025).

Biological target: the molecule itself
Test: SEC; gel filtration of total protein extracts from brain tissue of WT mice; GLB1 and NEU1 enzymatic activities measured in the eluted fractions

B1: β-galactosidase (GLB1), mouse brain (enzyme, mouse (endogenous in brain tissue), UniProt P23780 30-647, looked up)
chain: QRTFKLDYSRDRFLKDGQPFRYISGSIHYFRIPRFYWEDRLLKMKMAGLNAIQMYVPWNFHEPQPGQYEFSGDRDVEHFIQLAHELGLLVILRPGPYICAEWDMGGLPAWLLEKQSIVLRSSDPDYLVAVDKWLAVLLPKMKPLLYQNGGPIITVQVENEYGSYFACDYDYLRFLVHRFRYHLGNDVILFTTDGASEKMLKCGTLQDLYATVDFGTGNNITQAFLVQRKFEPKGPLINSEFYTGWLDHWGKPHSTVKTKTLATSLYNLLARGANVNLYMFIGGTNFAYWNGANTPYEPQPTSYDYDAPLSEAGDLTKKYFALREVIQMFKEVPEGPIPPSTPKFAYGKVALRKFKTVAEALGILCPNGPVKSLYPLTFTQVKQYFGYVLYRTTLPQDCSNPKPIFSSPFNGVRDRAYVSVDGVPQGILDRNLMTALNIRGKAGATLDILVENMGRVNYGRFINDFKGLISNMTINSTVLTNWTVFPLNTEAMVRNHLWGREASDEGHLDGRSTSNSSDLILPTFYVGNFSIPSGIPDLPQDTFIQFPGWSKGQVWINGFNLGRYWPTMGPQKTLFVPRNILTTSAPNNITVLELEFAPCSEGTPELCTVEFVDTPVIS
notes: β-galactosidase (GLB1), mouse, endogenous in brain extracts; detected by its enzymatic activity in gel-filtration fractions; Eluted both in the ~1,200 kDa LMC peak and as a 240 kDa tetramer; also called lysosomal β-galactosidase; source: endogenous, total protein extracts from mouse brain tissue
  stoichiometry N: 4
